Laboratory results from a protein production outcome set (Wang et al. 2014).

Test: label from the status in PepcDB records

Sequence	protein production
MIADDPHLELRLAASERDLRAAQRLRYTVFVEELGGDGDLVDHAERLERDEFDDLCDHLLLIDRRRDAAALEDVVGVYRLLPGERAAGAGRFYCDSEYDLDPLRASGRRVLELGRSCVHPDYRGGAAVFLLWSGLADYALAQRTELLFGVASFHGTDIEALAEPLSYLHAFHLAPEELRVRARSEGGQRMDLIPPERIDRRAAMLA	not failed
MAIPHYRLASFSSIIDDEIDKSVLVNLVGAIYDVGEFINTRPKQNIVDDLTLTFKISDNENRVLECLATKKEALDFDHNYRQYGGGVIVAVLGWWKIERYFDGTKNIRVCTACPISTVFP	failed
GKKIKYDTPLSTLVIAPPGTGKTSAIIIPNLLSIPNSQVVIDVKGEICSLTAGYRQKKLLNQVFIFNPFGEDSNFHFNPFNLERMSKLGFAEKTAIVRQVGSTIFPKPKDEKDSHWRETAKTFFEFAAMHNIEKYGYTTLYEIYRFPKKDWTDELEDKYFDEKEKREELGEEVNTFRLLLRQIAENETLHDNIRDDARRFLGTPANEFGSVLSTFSTKMSIFGDLRVKELTDQNSFMPERLREDNITLYIKCLEKDIPSLSPIIRILLETIVKELMSRESTDPKERIYLELDEVMRFGELDFMIELPSISRSYNLPNIFAAQSYAQIRKHYSQEDLEIMLDTVAYQVVFRANRQQAAEDISKEVGDFTAHKKTTSSQDIKILQSYSTSEEAKRLVTAQDILNIPKDKVLILATGHKATPILAQANFYFKDRTERQKTKIKKE	failed
MAQPERFGRYRVLRRLGSGSFATVWLGHDDLLDTPVAIKVLAENWAHNLDIHQRFVEEARILRQADSEWLVRVHDIGTLPDDRPYFVMTYADRGSVADRIAQGPLPLDEALRLLTEIGQGVTVLHRHGTIHRDIKPSNVLLQSSPVGERVLVADLGFAKSIDGASGFTASAGTPGYMSPEQSVVGGDIDVRADVYSLGAVAYELVTGKRPPSPPVRVPPSRLRPGVPPALDELIMSALSPNRSDRPPDAATFTSRIREIRMSPDLELATPWWQRYRATWTRLVALVATAVAVLGVAPAASASPHLPMMEIYDASGELHVRVPTPWLRQMQLNGWSPRELGLPGGHEPGLLVATDLDAWSDARQSVSGLFAGLFVSDGQSPDLDRLISSGLCSGQPQRQRFTNAHWDGELWQWVDCSPDSSEGDVFTAAVLQHRGQERTLYLEIRQTEHQPQTVAEILDGLRLIS	failed
EDYEKVPLPNSVFVNTTESCEVERLFKATSPRGEPQDGLYCIRNSSTKSGKVLVVWDETSNKVRNYRIFEKDSKFYLEGEVLFVSVGSMVEHYHTHVLPSHQSLLLRHPYGYT	not failed
MERVSERSLSENLRRSDREDGKIIEWEEFDHELTRLWSLSSAMKLATERKQILQPKLESLIQVSTESLRRTNELEEMRQRLEARKLLVDKTSVACKVTEQDVKKKEENLSTEVRSLLVGGTTLSIAKSKLQESNCQLEGESGYAHLKIVTNKLRKRQQFMVSQVSFIYPLKIEAGPSQDQELESFPGGSRLGTKPLSQGSVRILGLPFSMAPFTKMSFFTDKKEVQKSATALGYVAHAVSLIAPYLRVPIRYPLCLGGSKTYIRDYAPYIEPSPSDMSPITTLSQNINFVEFPLFLDGQDTTRAAYAVFLLNKNIEQLLNFVGENSLGPRQVLANLKELIRIIQSPDYIDYL	failed
MKERKKKYVALWQVMQRECRRLVSRPLYLFCMVIAPLFCYLFFTTLMDSGLPQNLPAGVVDMDDSSTSRNIVRNLDAFSQTGVVAHYSNVTDARIAVQEGKIYGFFYIPKGLSAEAQSQRQPKISFYTNYSYLIAGSLLFRDMKMMGELTAGSAARSVLYAKGATEDQAMGFLQPIVIDTHPLNNPWLNYSVYLCNTLIPGVLMLLIFMVTVYSIGVEIKDRTAREWLRMSNNSIYIALAGKLLPHTVVFFIMGIFYNVYLYGFLHFPCNSGIFPMIFATLCLVLASQCCGIVMIGTLPTLRLGLSFASLWGVISFSISGFSFPVMAMNPVLQALSNLFPLRHYFLIYVDQALNGYSMAYSWSNYMALLIFMMLPFFVVHRLKEALVYYKYIP	failed
VDCIGCRKCEEVCLSDALDIMGKDVSVSELMDIIMQDYDFYISSGGGVTIGGGEMSLQTDFAVALLRECKKMMINTAVETQATTNVANYEKLAQVVDQFLIDIKHIDTTQHKALFGIGNENVRRNLERLMDLGANVVIRMPLVRGYNDSYDAITGAINYAMALSKRGNLQRIDILPYHQFGRN	failed
MLEDHHLYKAAIEHSPIGIGLCAPKGRFLDVNRALCALTGHEAQALRARDLFDLCHPDYAARTRERVEALLAGEQDALSLETRFVRPDGSTVWVQADLALARAEAGDGQDGHLIVQVQDVTARRLALESLQASEQRLAYVLDGAGLGTFDWSMRVRHVSFNRRTAEMLGYAHDELSTDPQDWFAMVHPQDAVLSVRRIYRHLRGDADSFEVEQRLRNQEGQWVWMSARGRVTQRDALGIAVRVSGTLQDVTRRRAMLDQAHHLALHDPLTDLPNARLLRDRLFVAIQAARRAGSLVAVVFVDLDRFKPVNDEYGHGVGDLVLKATAMRLRSGLRASDTVARLGGDEFVAVLTHCQTRDDVEQTVERLIEQLQAPFRVEGHVLSMGVSAGVALYPSDGRDAQTLIRCADAAMYEVKRAGGNDFGFHASLNYERLMSMRQRGPDPDGGADGR	failed
MLSRLDQRSGGRSPIRAVRTRNSAMRTSRRAIVAFVLGVSALAVPALAFEGAPVNQKDATIPVVTTLPGAAGAVRSKVSPATQETSLSALQYAAEGGHPIAQWKLGRMYANGDGVAQDDVRAFEYFSRIANAHAEDSPSAPQAQIVANAFVALGRYYLSGIPNSKIKPDQDRAREMFSYAASYFGNADAQYDLARLYLKTPDASREDFRYGARWLGLAAQKGQHEAQALLGQMLFNGDRLPRQAARGLMWLTLARDSAGSEETWIKESYNRAFAKASDDDRAMCLQMLEQWVQGRRE	failed
MRIVIVGGSKFGVATAEQLIDKGHEVVLIDKNREKLEALTDRLDCGMIQGDGSSPKVLREAYAEENDVLVALTNASDDNILTALVARSVGFGRVIPQIVEAELLDVCVELDLKDTITPHVTVARSICRALEEDTELARDTNLTGDLRLLRLSVTSQLSGCSLSELDLPDECRAVAIVHEDREKFADPDAVVSEGEDILFAVHEDRVADLKALFATS	failed
MNGDFYVDTTCIDCDTCRWMTPEVFHRVDEMSAVYHQPTNETERLAALQALLSCPTSSIGTVEKLEHHHHHH	failed
MPVNQYQQEVGETLEHFAVGQMPDVKFLEGRYCSVEHIDARKHLNDIIDFYWKNAVPSDWTYMFDQPFETAEAVQERLQDYEKSENPYFFAIRDKETDKVLGTFSLMRIDPKNRVLEMGRVIYAPALQKTSAATEAQYLVMNYVFENLGYRRYEWKCDHLNQSSGNAAKRLGFTYEGTFRKHVVYKGRTRDTDWFSVIDQDWPKLKKRFENWLSPKNFDKTGQQIKALKDC	failed
MAPAPAAEFWEARYRDTGRVWSGRPNELLVQEAGGLAPGTALDLGCGEGADAVWLASRGWRVTGVDISATALERAAGHADGAGVGDRVLWERHELGPSFPEGSFDLVSAHYLQSPVALDQQAVLRAAARAVAPGGTLLVVMHAGWPSWQTEPPFDAAFPTLDGVLAELALPEGEWSVETRRTARRPSVAPDGTEGFREDHVWRLKRAVLEHHHHHH	not failed
MTKVLFVKANNRPAEQAVSVKLYEAFLASYKEAHPNDTVVELDLYKEELPYVGVDMINGTFKAGKGFDLTEEEAKAVAVADKYLNQFLEADKVVFGFPLWNLTIPAVLHTYIDYLNRAGKTFKYTPEGPVGLIGDKKIALLNARGGVYSEGPAAEVEMAVKYVASMMGFFGATNMETVVIEGHNQFPDKAEEIITAGLEEAAKVANKF	not failed
ADNNKWKPLFGKNLENANYNPEVWSETDGVLGAVKDESIWTKDEYENFELDLDFKTDVGTNSGVVVYCTDTKDWIPNSVEIQIADDHCEKWGNGKPYEKCGAIYGHLGAVQDKVVKKPGEWNHMRIKCAGQHIMVILNGKKVTEMDMSKWTSGTKNPDGSDIPSWLPKPFAELPTKGFIGLQGKHGDSLIWFRNIKIRSL	not failed
MSLLLTNHIGYERLGPKKAIIQTEQPHLSSYTAQLICATSEQTVATFAVEEQGKVANWHQGYFYLIDFSSFTDSGDYFLQVEDSRSSSFTVGEHILLEQTLSDVIHYFKSQRCGGVFDQQDRQVPVLNANQTADVHGGWYDASGDVSKYLSHLSYANYLNPQQTPMVVWNILKGLSLLEGSEDIAAFTRTRLIEEALFGADFLVRMQNEKGFFYMTVFDKWSKDTAQREICAYETQLGHKFDDYQAGFRQGGGVAIAALAAASRLGVHGEYDQQKYRNAAENGYWHLKEHNTQYLNDGEENIIDEYCALLASVELFKATKETRYLEESRLWAQRLVARQMSDEQIQHFWSANQDGSRPYFHAAEAGLPVIALCEYLAIEDDSVQTESVKRIVNRACEFEIKISNKVTNPFGYPRQYVKGVNESKRDAFFVAHNNESGYWWQGENARLGSLATMAYLAQPHIASQEIQQQLSVFAQDALNWIVGLNPYDMCMLDGHGRNNPDYLPQYGFFNAKGGVCNGITGGFEDEEDIAFNPPAQKDDMLQNWRWGEQWIPHGAWYLLAIMSQAQHISQLATSKNIKEGHHHHHH	not failed
MRKVRPEELPALLEEGVLVVDVRPADRRSTPLPFAAEWVPLEKIQKGEHGLPRRPLLLVCEKGLLSQVAALYLEAEGYEAMSLEGGLQALTQGK	not failed
MKINLDRTSSGFCIGVQGTIHVAEEKLAQSGELYCLGDVVHNEVEVKRLEALGMETIDIPAFEELRNAEVLIRAHGEPPSTYETARKNNLAITDTTCPVVAKLQRTAKMLHQLGYQVVIYGKKVHPEVIGINGQCDDEGVVIKHPDLSDPEEIAPLDLSRKTALISQTTMDVPGFYELKRNLEKLFAEHGHRNPGTQSGEWMAVRDIDITAEKTGALAMPKLVFKDTICRQVSSRNGKLRDFALANDCIVFAAGRKSSNGQVLYSICKDANPHSYFIEDVDEIRPEWFVGENGKPVESVGICGATSTPMWLLEKVANYIDKTFGDGSSNPNA	failed
MSDATNNAVLVRNLSPEVTKQTLLDFFSFCGEISAVKIRPSVGEGGSSSSGSPTEAMEALVIFENQSAKKTALVLDSATLKKRKISVMDATEELVSSFKDVREVDLARDSTDVPETATARQERLQGLREEFDRAIKRASDKLSDFNEKHRITEKVQEFGDLTKRKTQEINEQYRLTERAREGWQTVREKTRELDERLHLSESARDGWRSLKASVSKIMQKDRGGEVDKA	not failed
MPLLYILAIVVIVIILILLGIIAANYKKSGPQAALIVYGSGLGSKGVNKDSQGNRLKVVRGSGTFVLPIFQNARYLSLQSAAIDIKTEKVLSKDKIPVTVEATAMIKVGSTLQDIATAAEQFLGKRDEQRDAMADQVLRGHLRAIVGTMTVSELIEDRNKFSAEVQGQAGTDLSKMGLSIVSFVINDIRDDQNYIKALGAKEVARVQQEAAIAVANADKETRIQKAAADQDAQKAEALAATQVANAQKEKAISLAHYEQEQSIAAAEAKAQADQAQASADQAYAIQEAISKKETTEAEMQVELIKKQRETDLETQEVLRKAQENEANVVKAAEAAKAAQIAKAEADAREREVRAQAEAAAIEATAKATAKQREVTAMAEATAIEATGKAEAEAIRLKGLAEAEAIDKKAEAMQKMNDAAKLNMALEILPEVVASVSSNLQAVDSINIYGGEGSSKILGMSQESLKQGLDVLGTMGIDVPDLLNNFSSRGNSNETLEKVEKIEE	failed
MRVLILGSGVIGTTSAWYLSKAGCEVVVVDRQSGAGLETSYANGGQLSFGYTSPWAAPGVPLKAVRWLFERHAPLSIRPTTDWNQYVWLARMLRHCSAERYAVNKSRMLRLSEYSREALEALSAETGITFEGRRLGTIQLFRTQQQLDGAVRDIELLTQYGIPYEVLSPHQLAKFEPGLADGSVRFVGALRLPHDQTGDCCLFTQRLAALAAKRGVEFRYGCTVQRLEVDGPRVTGAWINGALERADCCVVALGSYSPLLLAPLGLRLPVYPLKGFSLTLPMIDASRAPVSTVLDESYKVAVTRFDERIRVAGMAEVSGYDVSLNPRRRSTLEMVVQDVYPGCGDLGRGEFWTGLRPATPDGTPVIGATPYQGLFLNTGHGTLGWTMSSGSGRYLADLICCRPCEISSEGLDMFRYLVSTIPCPQECAPCVPPTP	failed
